Data: PMC6269424

Conditions: O-GlcNAc at T84

Substance	expression_or_secretion
PPARγ2: T84A	decreases
PPARγ2: adipocyte-specific OGT knockout (FKO)	decreases
